Measurements from patent publication US20210230304A1.

Target: Chicken egg white-derived lysozyme (Sigma-Aldrich) (chicken) (UniProt P00698)
Test: SPR, Biacore T200; antigen immobilised, antibody as analyte

Chain of Chicken egg white-derived lysozyme (Sigma-Aldrich) (chicken) (P00698 19-147): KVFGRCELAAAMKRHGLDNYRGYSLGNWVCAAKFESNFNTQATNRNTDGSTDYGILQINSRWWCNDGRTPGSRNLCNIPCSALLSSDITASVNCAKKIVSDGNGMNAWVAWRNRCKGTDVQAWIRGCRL

## mouse anti-lysozyme antibody of clone Hy-HEL5, wild-type
  Kd: 0.177 nM
